According to patent US7465453B2, “Polypeptide fragments of CKLF1” (Peking University, priority 2004, dated 2008):
Values belong to the molecule of their own block, whether it stands above or below them. Ends that are not written are not given here.

Experiments:
Type in all cases: cell-based
[1] = biological target: T1, CCR6 (Homo sapiens, UniProt P51684); assay: Internalization of CCR6-EGFP in transiently transfected HEK293 cells; settings: HEK293 cells transfected with pCCR6-EGFP; 37° C., 2 hours
T1 construct: The cDNA fragment covering the open reading frame for CCR6 chemokine receptor was cloned into pEGFP-N1 vector (CLONTECH); expressed in transfected cells; host or cells: HEK293 (transient)
T1 sequence (P51684 1-374): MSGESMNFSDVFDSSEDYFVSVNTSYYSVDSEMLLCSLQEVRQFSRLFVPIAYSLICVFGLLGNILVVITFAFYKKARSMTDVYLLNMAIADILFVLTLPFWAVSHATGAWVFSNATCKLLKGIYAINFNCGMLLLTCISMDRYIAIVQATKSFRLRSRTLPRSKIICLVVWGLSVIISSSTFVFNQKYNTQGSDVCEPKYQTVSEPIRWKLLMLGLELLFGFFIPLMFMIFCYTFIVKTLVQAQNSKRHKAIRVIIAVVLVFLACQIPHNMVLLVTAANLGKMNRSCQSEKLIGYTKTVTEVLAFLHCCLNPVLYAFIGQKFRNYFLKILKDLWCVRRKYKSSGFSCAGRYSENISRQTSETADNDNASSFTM
Procedure: (§1) The cDNA fragment covering the open reading frame for CCR6 chemokine receptor was cloned into pEGFP-N1 vector (CLONTECH). pCCR6-EGFP transiently expressing HEK293 cells were cultured in glass-bottom dishes in RPMI 1640 with 10% FBS. After 16-24 hours of serum starvation, cells were treated with CKLF1 C-terminal peptides or MIP3α at 37° C. for 2 hours. Cells were washed with cold PBS and fixed with 2% paraformaldehyde in PBS. The subcellular localization of CCR6-EGFP protein was visualized using a Leica TCS-NT confocal fluorescence microscope with a 63× oil immersion lens (Wetzler, Heidelberg, Germany). The excitation and emission wavelengths were 488 and 515-540 nm, respectively.

[2] = biological target: T2, CCR4 (Homo sapiens, UniProt P51679); assay: Chemotaxis assay (48-well microchemotaxis chamber) of HEK293 cells transfected with CCR4
T2 construct: The cDNA fragments covering the open reading frames for various chemokine receptors were obtained as follows; expressed in transfected cells; host or cells: HEK293 (transient, electroporation)
T2 sequence (P51679 1-360): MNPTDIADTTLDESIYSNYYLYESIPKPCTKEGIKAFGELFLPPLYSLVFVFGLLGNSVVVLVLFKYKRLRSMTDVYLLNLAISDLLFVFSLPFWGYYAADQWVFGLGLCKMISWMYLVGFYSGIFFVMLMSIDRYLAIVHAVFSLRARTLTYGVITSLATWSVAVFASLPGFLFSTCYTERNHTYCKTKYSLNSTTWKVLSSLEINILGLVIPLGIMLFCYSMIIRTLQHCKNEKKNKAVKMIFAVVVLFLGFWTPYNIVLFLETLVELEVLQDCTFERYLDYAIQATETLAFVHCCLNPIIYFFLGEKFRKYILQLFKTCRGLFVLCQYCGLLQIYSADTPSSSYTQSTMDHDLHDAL
Procedure: (§2) HEK293 cells were grown in RPMI 1640 supplemented with 10% heat-inactivated FBS, penicillin (100 U/ml) and streptomycin (100 μg/ml). Every 4×10^6 HEK293 cells in 400 μl were transiently transfected by electroporation with 15 μg of the expression plasmid at 120 V, 20 ms using an electric pulse generator (Electro Square Porator ECM 830, BTX, San Diego, Calif.), and calcium mobilization assay and chemotaxis assays were performed 48 hours later.
(§3) The chemotaxis assay was performed using a 48-well microchemotaxis chamber (Neutroprobe; Cabin John, Md., U.S.A.). Chemoattractants were diluted in HEPES-buffered RPMI 1640 medium supplemented with 0.1% BSA and placed in the lower wells (28 μl/well). HEK293 cells transfected with pcDI-CCR4, -CCR5 were resuspended in the same medium at 2×10^6 cells/ml and added to the upper wells (50 μl/well), which were separated from the lower wells by a polyvinylpyrrolidone-free polycarbonate filter with 8-μm pores. The chamber was incubated for 2 hours at 37° C. in 5% CO2 and 95% air. Filters were removed from the chamber, washed, fixed, and stained with Three Step Stain Set. Cells that migrated were counted in 5 randomly selected high power fields (400×) per well. The chemotactic index (CI) was calculated from the number of cells that migrated to the control. Significant chemotaxis was defined as CI>2. In some experiments, cells were pretreated with TARC, RANTES, purified CKLF-myc protein or secreted CKLF1 peptides for 30 min. at 37° C., or 100 ng/ml PTX (ALEXIS Biochemicals Corporation) for 6 hours at 37° C. prior to subsequent stimulations.

[3] = test system: U937 cells; assay: Chemotaxis of U937 cells; settings: for migration (chemotaxis) of U937 cells: C19, C27, RANTES: U937 cells stimulated by 30 ng/ml IFN-γ
Procedure: The chemotaxis assay was performed using a 48-well microchemotaxis chamber (Neutroprobe, Cabin John, Md., U.S.A.). U937 cells were stimulated by 30 ng/ml IFN-γ for 4 days because IFN-γ could increase the expression of chemokine receptors CCR1, CCR3, and CCR5 in U937 cells. Then part cells were incubated with mouse anti CCR5 100 μg/ml, and/or rat anti CCR3 10 μg/ml for 30 minutes at 37° C., and corresponding mouse IgG and rat IgG as controls. Chemoattractants RANTES, C19 and C27 were diluted in HEPES-buffered RPMI 1640 medium supplemented with 0.5% BSA to indicate concentration, and placed in the lower wells (28 μl/well). U937 cells stimulated by IFN-γ were resuspended in the same medium at 1×10^6 cells/ml and added to the upper wells (50 μl/well), which were separated from the lower wells by a polyvinylpyrrolidone-free polycarbonate filter with 5-μm pores pre-coated by 0.001% fibronectin. The chamber was incubated for 2 hours at 37° C. in 5% CO2 and 95% air. Filters were removed from the chamber, washed, fixed, and stained with Three Step Stain Set. Cells that migrated were counted in 5 randomly selected high power fields (400×) per well. The group with no Chemoattractants in the lower wells was used as a control. All samples were assayed twice at least. The chemotactic index (CI) was calculated from the number of cells that migrated to the control. Significant chemotaxis was defined as CI>2.

[4] = biological target: T3, CCR5 (Homo sapiens, UniProt P51681); assay: Chemotaxis assay (48-well microchemotaxis chamber) of HEK293 cells transfected with CCR5
T3 construct: The cDNA fragments covering the open reading frames for various chemokine receptors were obtained as follows; expressed in transfected cells; host or cells: HEK293 (transient, electroporation)
T3 sequence (P51681 whole entry, the tested form may be a part): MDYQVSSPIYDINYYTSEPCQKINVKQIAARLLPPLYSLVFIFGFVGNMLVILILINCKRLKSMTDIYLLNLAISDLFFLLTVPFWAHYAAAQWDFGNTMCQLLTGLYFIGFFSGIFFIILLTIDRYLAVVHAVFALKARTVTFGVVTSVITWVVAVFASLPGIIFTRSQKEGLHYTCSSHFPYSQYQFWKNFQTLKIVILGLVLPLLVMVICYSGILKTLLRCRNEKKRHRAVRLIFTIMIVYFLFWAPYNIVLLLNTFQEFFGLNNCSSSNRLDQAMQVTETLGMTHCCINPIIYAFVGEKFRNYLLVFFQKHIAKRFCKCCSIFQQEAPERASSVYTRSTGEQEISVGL
Procedure: as §2
as §3, with “In some experiments, cells were pretreated with TARC, RANTES, purified CKLF-myc protein or secreted CKLF1 peptides for 30 min. at 37° C., or 100 ng/ml PTX (ALEXIS Biochemicals Corporation) for 6 hours at 37° C. prior to subsequent stimulations.” left out

[5] = biological target: T3, CCR5; assay: Calcium flux assay in CCR5-transfected HEK293 cells
Excerpt: (§4) The cDNA fragments covering the open reading frames for various chemokine receptors were obtained as follows. CCR4, CCR5 and CCR6 receptors were cloned from a K562 cell cDNA library by polymerase chain reaction (PCR). The primers were designed using the sequences from the following GenBank™ submissions: CCR4 (NM_005508.2), CCR5 (NM_000579) and CCR6 (AY242126). The fragments were cloned into an expression vector pcDI (modified in our lab from pcDNA3 vector (Invitrogen), in which the part between BgI II-Kpn I was replaced by the fragment of pCl vector (Promega) digested with BgI II-Kpn I) or pEGFP-N1 vector (CLONTECH) for efficient expression in HEK293 cells. The sequences coding receptors in expression plasmids were confirmed by DNA sequencing, which is consistent with the sequence submitted in GenBank™.
as §2
(§5) HEK293 cells transfected with pcDI-CCR4 or pcDI-CCR5 were grown in specialized glass-bottom microwell dishes (MatTek Corporation, U.S.A.) and loaded with 10 μM fluo-3/AM in HEPES-buffered saline at 37° C. for 1 hour in the dark. The cells were rinsed with HEPES-buffered saline and stimulated with 167 nM secreted CKLF1 peptides and 100 nM TARC or RANTES, respectively. Fluorescence was monitored at 488 nm (excitation wavelength) and 530 nm (emission wavelength) every 5 second using a Leica TCS-NT confocal fluorescence microscope with a 40× oil immersion lens (Wetzler, Heidelberg, Germany). The measurement was completed at room temperature and each field of cells was selected at random. Images were collected at 5 second intervals for 405 seconds. The images were analyzed for relative fluorescence using Leica confocal software. The relative fluorescence was determined using Microsoft Excel. All calcium flux assays were performed in the presence of extracellular calcium (in the absence of EDTA or EGTA) in the assay buffers. Therefore, both intracellular calcium release and extracellular calcium influx were analyzed.

[6] = biological target: T2, CCR4; assay: Internalization of CCR4-EGFP in transiently transfected HEK293 cells; settings: HEK293 cells transfected with pCCR4-EGFP; 37° C., 2 hours
Procedure: as §1, with “CCR4” for “CCR6”, “pCCR4-EGFP” for “pCCR6-EGFP”, “16 to 24” for “16-24”, “hours” for “hours of”, “TARC” for “MIP3α”, “CCR4-EGFP” for “CCR6-EGFP”

[7] = biological target: T2, CCR4; assay: Calcium flux assay in CCR4-transfected HEK293 cells
Excerpt: as §4, §2, §5

Molecule: MIP3α: chemokine used as comparison treatment in the CCR6-EGFP internalization assay [reference compound]
internalization of CCR6-EGFP [1]: internalization of chemokine receptors induced by MIP3α

Molecule: CKLF1-myc protein: recombinant CKLF1-myc protein expressed in Drosophila S2 cells and purified from the supernatant (ALIYRKLLFNPSGPYQKKPVHEKKEVL; not fully specified)
migration (chemotaxis) of transfected cells ([2]; CCR4-transfected HEK293 cells): could induce the chemotaxis
migration (chemotaxis) of U937 cells [3]: can induce the chemotaxis

Further lines, with some results ahead:

chemotaxis induced after PTX pretreatment ([4]; CCR5-transfected HEK293 cells treated with 100 ng/ml PTX at 37° C. for 30 min): completely abolished by PTX
calcium flux ([5]; CCR5-transfected HEK293 cells, 167 nM C27 or C19, 100 nM RANTES): induced calcium flux
Molecule: RANTES: cognate ligand for CCR5 (peprotech), positive control [reference compound]
desensitization of the receptor to subsequent stimulation with the purified CKLF1-myc protein (chemotaxis) ([2]; CCR4-transfected HEK293, pretreatment): could desensitize the receptor
desensitization of the receptor to subsequent stimulation with RANTES, C27 or C19 (chemotaxis) ([4]; HEK293/CCR5, pretreatment 1 mM RANTES or 2 μg/ml C27 or C19, 37° C., 30 min): could desensitize the receptor
migration (chemotaxis) of U937 cells [3]: could induce migration
chemotactic activity after neutralization of chemokine receptors ([3]; IFN-γ-stimulated U937 cells, mouse anti CCR5 and/or rat anti CCR3): obviously inhibited
desensitization of the receptor to subsequent stimulation with C27 and C19 ([5]; CCR5 transfectants, pretreatment with 100 nM RANTES): desensitized the receptor

chemotaxis induced after PTX pretreatment ([2]; CCR4-transfected HEK293 cells treated with 100 ng/ml PTX at 37° C. for 30 min): completely abolished by PTX
calcium flux ([7]; CCR4-transfected HEK293 cells, 167 nM C27 or C19, 100 nM TARC): induced calcium flux
B1: TARC: cognate ligand for CCR4 (peprotech), positive control (protein)
chain: ARGTNVGRECCLEYFKGAIPLRKLKTWYQTSEDCSRDAIVFVTVQGRAICSDPNNKRVKNAVKYLQSLERS
desensitization of the receptor to subsequent stimulation with TARC, C27 or C19 (chemotaxis) ([2]; HEK293/CCR4, pretreatment TARC or 2 μg/ml C27 or C19, 37° C., 30 min): could desensitize the receptor
internalization of CCR4-EGFP [6]: internalization of chemokine receptors induced by TARC
desensitization of the receptor to subsequent stimulation with C27 and C19 ([7]; CCR4 transfectants, pretreatment with 100 nM TARC): desensitized the receptor
